According to patent US6277383A, “Ryegrass pollen allergen” (University of Melbourne, priority 1995, dated 2001):

Key:
[1] = test system: specific IgE from pooled human allergic sera; assay: Immunological screening of clone 19R with sera; format: binding; conditions: plaque purified clone
Source text: Duplicate filters of the cDNA expression library in Example 1 were screened with specific IgE from pooled human allergic sera. The bound IgE was detected using ^125 I-labelled anti-human IgE (Kallestad Laboratories,Chaska, Minn.). The plaques that were antibody-positive on both of the duplicate filters were picked off, purified, and then replated and tested for binding to MAbs.

[2] = test system: IgE antibodies of individual serum from 30 grass allergic patients; assay: Dot blot screening of recombinant allergens with 30 individual allergic sera; format: binding, human
Protocol: Two microliters of phage stocks of clones 12R, 13R and 19R and a non-recombinant lambda gt 11 were spotted onto a lawn of E. coli Y1090 induced with a nitrocellulose filter saturated with 10 mM IPTG. The protein blots were then probed with individual serum from 30 grass allergic patients. a=Lol p Ib.1, b=Lol p Ia, c=Lol p Ib.2 and d=non-recombinant lambda gt 11. [<]=individuals having higher level of IgE bound to Lol p Ib.2 than Lol p Ia and Lol p Ib.1. [1]=individuals having IgE specific to Lol p Ia. [2]=individuals having IgE specific to Lol p Ib.1 and Lol p Ib.2.
The relative allergenicity of Lol p Ia, Lol p Ib.1 and Lol p Ib.2 were tested using 30 individual allergic sera.

MAb 12.3 = assay: Antibody screening of lambda-gt 11 cDNA clones: binding of MAb 12.3
Protocol: Poly (A+) mRNA isolated from mature rye grass pollen by the phenol method ([…] and Michaels, (1984) Plant Mol. Biol. Rep., 2:24-28) was used to construct a cDNA library in the vector lambda-gt 11. The library was then screened with antibody probes to detect sequences expressing Group I proteins. E. coli […] transfected with 3×10^4 recombinant phages were plated and incubated at 42° C. for 3 h. The plates were overlaid with a dry 132 mm nitrocellulose (NC) filter previously soaked in 10 mm IPTG and transferred to 37° C. After incubation for 3 h the filters were carefully peeled off and incubated in 20 ml per filter of MTBS (10% w/v non-fat milk powder, 50 mm Tris-HCI, pH 7.6, 150 mM Nacl) for 30 min. at room temperature. A second set of NC filters was placed on phage plates and after incubating for 3 h were treated as above. Both sets of NC filters were tested for binding of MAb 40.1 to plaques by the method described in Huynh et al. (1985) In: DNA Cloning, a practical approach, Glover, D. M. (ed.) Vol. 1, pp. 49-78, IRL Press, Oxford, England. The antibody positive plaques were picked, purified, then replated and tested for binding to probes. The positive clones were plaque-purified and tested for IgE binding using sera from grass pollen-allergic subjects. Eighteen clones were selected as encoding proteins recognized by both Lol p I-specific MAbs and IgE antibodies (Table 1). The largest of the cDNA clones, 1.2kb in size, that expressed rye-grass allergenic protein was initially selected for further characterization and sequencing, and designated clone lambda-12R (FIG. 1a).

Molecule	Reaction with non-allergic sera [1]	Binding of specific IgE in sera of ryegrass sensitive patients ([1]; pooled allergic sera)	Patients with IgE antibodies reactive to the recombinant allergen [2]	Affinity of MAb 12.3 (footnote of Table 1, in words) (MAb 12.3)
clone 19R: lambda gt 11 cDNA clone encoding Lol p Ib.2 (protein) MAVQKHTVALFLAVALVAGPAASYAADAGYAPATPATPAAPATAATPATPATPATPAAVPSGKATTEEQKLIEKINAGFKAAVAAAAVVPPADKYKTFVETFGTATNKAFVEGLASGYADQSKNQLTSKLDAALKLAYEAAQGATPEAKYDAYVATLTEALRVIAGTLEVHAVKPAAEEVKVGAIPAAEVQLIDKVDAAYRTAATAANAAPANDKFTVFENTFNNAIKVSLGAAYDSYKFIPTLVAAVKQAYAAKQATAPEVKYTVSETALKKAVTAMSEAEKEATPAAAATATPTPAAATATATPAAAYATATPAAATATATPAAATATPAAAGGYKV	not positive	bind specific IgE		
Lol p Ib.2: protein encoded by clone 19R (SEQ ID NO.: 4) (protein) MAVQKHTVALFLAVALVAGPAASYAADAGYAPATPATPAAPATAATPATPATPATPAAVPSGKATTEEQKLIEKINAGFKAAVAAAAVVPPADKYKTFVETFGTATNKAFVEGLASGYADQSKNQLTSKLDAALKLAYEAAQGATPEAKYDAYVATLTEALRVIAGTLEVHAVKPAAEEVKVGAIPAAEVQLIDKVDAAYRTAATAANAAPANDKFTVFENTFNNAIKVSLGAAYDSYKFIPTLVAAVKQAYAAKQATAPEVKYTVSETALKKAVTAMSEAEKEATPAAAATATPTPAAATATATPAAAYATATPAAATATATPAAATATPAAAGGYKV			80%	
Lol p Ib.1: protein encoded by the 12R clone (SEQ ID NO.: 2) (protein) MAVQKYTVALFLAVALVAGPAASYAADAGYTPAAAATPATPAATPAAAGGKATTDEQKLLEDVNAGFKAAVAAAANAPPADKFKIFEAAFSESSKGLLATSAAKAPGLIPKLDTAYDVAYKAAEGATPEAKYDAFVTALTEALRVIAGALEVHAVKPATEEVPAAKIPTGELQIVDKIDAAFKIAATAANAAPTNDKFTVFESAFNKALNECTGGAYETYKFIPSLEAAVKQAYAATVAAAPEVKYAVFEAALTKAITAMTQAQKAGKPAAAAATGAATVATGAATAAAGAATAAAGGYKA			80%	high affinity
